According to the supplement of paper PMC12636428:

Tested on: Saccharomyces cerevisiae
Assay: transcriptional activation domain activity (GFP:mCherry ratio, weighted mean of sorted bins, harmonized to initial dataset scale) (arbitrary fluorescence ratio units); higher = stronger transcriptional activation
Details: beta-estradiol 1 µM; induction time 4 h
Method in brief: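 Each value is an activation activity: the read-weighted mean of bin median fluorescence, averaged across barcodes, then mapped linearly to the initial dataset scale. The tiles, fused to an estradiol-inducible synthetic transcription factor, sat at the yeast URA3 locus in GFP-reporter diploids. Cells spent 4 hours at 30 °C in SC with 1 uM beta-estradiol before sorting into 8 GFP:mCherry bins, and tiles below 50 reads were removed.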

Sequence | transcriptional activation domain activity
RDRGDSHRRHHHRSGSDDERRHRSDRRAREKDGDRSRSHRSSRHADEREERDE | 17600
RDRGGERDSKPRKTSGSSSNSQHADRGDTRSQKSSRRRRSSRSEHGGETSQHH | < 6570
RDRKKRKVDGSEDSDDSDDDGTRGKGRGKSKSKGKGKSKEKKKKSSRKSKKAE | < 6570
RDRRRRSRSRSRDRRNKRRRRELEDRSKRRRSKSRVKNEETSEAEKRGRRRKP | 37900
RDSKTDVEAEVEAAEKDEKKGKKRKRAEVVAAEESAEARKGKSKKSSRKGKEV | 34100
RDVFLGILHRNWFNRVWILQEVASARAAVVFCGRNSISTRIFTRLPLLFDITP | 68000
RDVYYILHWVVAFTLVRATVMYKMLEPFIKWYGVRSQHKIMRFGEQGWLTIYY | 59800
RDWRYVPEYVMRICRAHHADKPSVQMLVRKCFLEHIVNLTFTSFKALMSSKMS | 42700
REAAGRERGERGRDNARGAGEREQPGRVRARLRGGRGKAREGEEGSCVRSAAP | 22900
REARRHADEEARRRQARQEARRHADEEARRRQEEELARQEARRHADEEARRRQ | 27000
REDRQRKQQREKERAAREAEGTQRRRRKRRRTNGGAKTEEGEEENDGEEEEDG | 52800
REEAERKAREEEAERKAARGRGEESEGRARKAGARRARGTPRGGKAGTRRGGE | 43000
REFRVVEEEEEEEEEEEEEEEEEEEEDEEEGGLGGESVEEGGRRDKGKGVVKE | 20100
REGEERERDGRRTSTGRRARGKGRRSRRKEGKRENRKERERKEGKEGPGQRRR | 26700
REGEGRGERGREGAGRERGGGKGVGGGEGGGERTIRLKGRKGDSNETTRRKEE | 31700
REGGGEGGGAQDGSSAPKKKRLGRKERIKSKAAGGDTGGEGADGAAASPEGAG | 39600
REGGRRGRGRARSRRQGGKREERGRTRKGRKGGENRPKREGGQGGGERARRRE | 41300
REGHLFSCIYIMYCQILFRKVGWSSVFDCAFHVLLAMSAAGNFLVVGAIRCKC | 37300
REGRKKGREAREKRSGGKGGKGGKGKGRATDGAEGAEEGAAAGARQPNGRNAK | 22200
RELEKREREREEREREERERELEKREREREQRGRELEKRERRGRRGSESWRRG | 26100
RELKRMVQEAIRDIREKKSTLTVQHLKRLLFRVAALIICTPKCDHDLLHYLVI | 61800

Sequence | transcriptional activation domain activity
REQQQRNDFPEGTHRMKVVAERWKTLSDDQREISFISSLLYAYVHVELRLRLG | 46500
RETDAWACGVVLYALCARRLPFGEGAARVEGESGGRIGREGGAREGAAARRHW | 32400
REYHGDTAEIKYGHKVVEIGEDKERGKARVRVEKDGEGGVKEEEVHEADYVVG | 22600
REYNRMLRFYGVQDHQVKNTRLSVKEAFMLIIYRCVEVFCLFILSLPMIVLAS | 58200
RFFIRVLSNLKIDRHNSMYCTLGRPITILNLILRGWYVVRKFIILLFSIVLLF | 54100
RFGGSARGGGTGVEPPAKGKKGGGEEREGGEGRKGKGGRGPGTRERKGKERER | < 6570
RFISLAFFDVVSCSVWLSIYHLLVLRFFLDLQSCLSFLLLYIRPSFPCLLIPR | 50500
RFISTRSFLFIFLFDSFFFFSFFFLSLFFFFISFFSFSSFFFFIFTLYLSRAL | 28300
RFLFQWDLELALSLCLSHTLGIISLPYKSIFISILWLIQSSWQLLFFLFWQPL | 70400
RFLICDYLLIIAGLFNIVATSLTQVVVNLGLGRHIMDPSVFPNILQYSYYLWI | 25000
RFLLAALLLFGPLIGSCPSMSMSLMITEFGLFCCACLLGFVHHLFFPIFVESR | 47600
RFLLCLLCMELLLHFVYVGAINSSLPVWDSYTPAQLSLLSFQNLIIIWLKLLL | 36800
RFLSFLLLLLVFFYPFVFFVLALVLCTFWSLFPSNTPLHSLVCRLQLLHPFVF | 41400
RFMVVIVSLFPRLNYFMDAVGHVLSVYYFNHLACQWITTAITSLAIVLFALRT | 53900
RFNLPICGEIKMYRGWTVIDLVHMVCINTACKISNLKHALRKLSISFTNLVKP | 54700
RFRALRLLVIDDMIRLRDQSHCGWICTFLSSIELDVIQCINFRIWINMCPEFY | 32600
RFVTNILVILSDRVNMEQLLKRIRKKAADFYHFTDLWQWCCAQFVKLLRKVYN | 55100
RFYVYLLILLGCIIWINQCQYATDRSGYQRGHSAVLRALFYRLCRLLQTAITP | 35000
RGAARCFCVYFFLSLWHFYENHIFFFCSLFFHSLLLCHFFFSFFCVALRLLAC | 33800
RGAKEGARGGGENEKNEGDTGRSRAEGTRETESGAGASQQRAAREGTAGTQGR | < 6570
RGATPGRKPAAGGPRESAARAARGRGKGGGTGGEGRGRGRARGRGRTRGKRRT | 54900

Sequence | transcriptional activation domain activity
RGDEDADGDDDEGEGSGDKTGDAEAGAAPSSGAGGGSSNSKKNKKKKNKKKGK | 51900
RGDGAEDSNRKRRRRSRSPRRSPPDRARERSTTADDAKGTRHRDRSSHRHKDK | 32600
RGDGMEERKGEKRGRKGGERGGRGEGGHRGRKGDTEGGRGTGEKRGGKGGKRG | 33500
RGDTAAPGAEDDVELHYVCFVKGGDGRLWELDGRRKGPLERGRLGEGEDVLSE | 27800
RGEGDSKSDGKSDGKSEDKAENKGEEAPLVSEKDLVILAEHDLNGRQIKNVIK | 11000
RGEILESKFGRSSKPSPRILIVSNSKFYIVAQALVNHQVQISVERSVPLGAIK | 51900
RGERGQGAGGRGEGEGRGAGGERERRGGEREEGRGRERDERQGGKRERERGQG | 21800
RGFVVMLEGLFICGGLVIQAFLNLGLSHATGGVTWRFSLAFSCFFDLVVFFSI | 46600
RGGGGGGKRGSRAGSGIAADSKEKGNDGEVKLKDKEKGRSKEKKSGKEGGGAA | 35900
RGGGRADQGRRKSPARARSASASSQSSSRSRSASRDSDQSNRRSKATSPGGRG | 32500
RGGGRKKKEADGEDGETTPKKTPRKRAAKEAEDGDASPKKKGRPAKAKPRQEP | 17900
RGGKGVEEERGEGGGRGEGERGQGGRGRGGRGAGARGRGGTGEEGEGAGGKQE | 51400
RGGNPSGNAGGAGRRAKKSKDRDRNKKKSKKNSGQSGDRSTSSSKNKNKKGGG | < 6570
RGGRGRRNGGKERGKEKKGKKEEENDRRGKGKERKERRKNDGGKRREGREREK | 47600
RGGRRGRGERKREKEEKKRRKRKGKEKRATTEEGGRARRKEKKAVCGRRWSGG | 46100
RGINAPLIQIPLYNNDPWIQTTISDDYLLPPGWFDILFPTNFDLLKDIYLTAF | 60600
RGKQPYRWTIWIYLGTRYSCLLMFITFFILNHAGHALCKPLILMNYVFNIVSW | 41700
RGKSSSSSIGGAQEGAVRADETSHHHHHHHHQQQQQQQQQKQQQRHVQEQADI | 30600
RGKVVSRLRKVLQKTSFKPTRSLTDHWTWNEIAILIRFVLMLSFNNRGPVKSY | 43200
